Source: patent US20230049152A1 (Genentech, published 2023)

B1: Afuc.hu.Ab4.H12L3 (antibody, human IgG1, kappa)
heavy: not shown
light: DYQMTQSPSSLSASVGDRVTITCQASQSISSYLSWYQQKPGKAPKLLIYKASTLASGVPSRFSGSGSGTDFTLTISSLQPEDFATYYCQQGYTSSNIDNIFGGGTKVEIKRTVAAPSVFIFPPSDEQLKSGTASVVCLLNNFYPREAKVQWKVDNALQSGNSQESVTEQDSKDSTYSLSSTLTLSKADYEKHKVYACEVTHQGLSSPVTKSFNRGEC
modifications: afucosylated Fc N-glycan at position Asn299; between about 80% to about 95% afucosylation
notes: also called Afuc.Ab4.H12L3; afucosylated hu.Ab4.H12L3
B2: hu.Ab2.H1L1 (antibody, human IgG1, kappa, V domains shown)
VH: EQQLVESGGGVVQPGRSLRLSCAASGFSFSYGYDMCWVRQAPGKGLEWIACISAGSSDNTWYASWAKGRFTISKDTSKTTVYLQMNSLRAEDTAVYFCSRYLGLWGPGTLVTVSS
VL: EQVLTQSPGTLSLSPGERATLSCQSSKSVNNNNLAWYQQKPGQPPRLLIYFASALASGVPDRFSGSGSGTDFTLTISRLEPEDFAVYYCQGAYSGGSDSYAFGGGTKVEIKR
notes: humanized rabbit anti-CCR8 antibody, human IgG1
B3: Afuc.hu.Ab5.H13L1 (antibody, human IgG1, kappa)
heavy: not shown
light: DIQVTQSPSSLSASVGDRVTITCQASENIANALAWYQQKPGKPPKFLIYGASNLASGVPSRFSGSGSGTDFTFTISSLQPEDIATYYCQQAYYGNSFVEGTFGGGTKVEIKRTVAAPSVFIFPPSDEQLKSGTASVVCLLNNFYPREAKVQWKVDNALQSGNSQESVTEQDSKDSTYSLSSTLTLSKADYEKHKVYACEVTHQGLSSPVTKSFNRGEC
modifications: afucosylated Fc N-glycan at position Asn299; between about 80% to about 95% afucosylation
notes: also called Afuc.Ab5.H13L1; afucosylated hu.Ab5.H13L1

What was measured:
GST-FcgR3a.V158 [1] = biological target: T1, GST-FcgR3a.V158 (UniProt P08637 17-208, limits assumed); assay: ELISA, GST-FcgR3a captured by anti-GST antibody
T1 construct: Captured by anti-GST antibody on ELISA plate; also called FcgR3a.V158 protein; Fcgamma RIIIa V158; not shown: GST tag
Description: (§1) The binding of fucosylated and afucosylated variants of hu.Ab5.H13L1 and hu.Ab4.H12L3 to both FcgR3a proteins by ELISA was studied. Briefly, an anti-GST antibody was coated on Nunc Maxisorp plates. GST-FcgR3a.V158 and GST-FcgR3a.F158 were captured at 500 ng/mL. Plates were then washed and then serially diluted anti-CCR8 antibodies starting at 100 ug/mL were incubated on the plate for 1 hour at room temperature. Plates were washed and bound antibody was detected by a HRP-conjugated anti-human IgG secondary antibody. Absorbance at 450 nm was measured by a plate reader. The data were fitted using a 4-parameter logistic curve in Softmax Pro.

GST-FcgR3a.F158 [2] = biological target: T2, GST-FcgR3a.F158 (UniProt P08637 17-208, limits assumed); assay: ELISA, GST-FcgR3a captured by anti-GST antibody
T2 construct: Captured by anti-GST antibody on ELISA plate; also called FcgR3a.F158 protein; Fcgamma RIIIa F158; not shown: GST tag
Description: as §1

human CCR8 [3] = biological target: T3, human CCR8 (human, UniProt P51685 1-355); assay: cell-based or functional assay
GST-FcgR3a.V158 [4] = biological target: T1, GST-FcgR3a.V158; assay: ELISA, GST-FcgR3a.V158 captured by anti-GST antibody
Description: as §1

cyno CCR8 = biological target: T4, cyno CCR8 (cynomolgus monkey, UniProt O97665 1-356 (rhesus entry)); assay: whole-blood flow cytometry of cyno blood spiked ex vivo with a saturating concentration of the antibody, detected with labeled goat anti-human IgG on FoxP3+ T-reg cells; relative percentage of CCR8+ T-reg cells
T4 construct: also called cynomolgus monkey CCR8
Description: Blood was collected from each of the animals before dosing (“Pre-study”), as well as on Day 1 at 0 hours (“Pre-dose”). Each of the animals were then administered a single dose of 10 mg/kg afucosylated anti-gD (Control Group), Afuc.hu.Ab5.H13L1 (Group 2) or Afuc.hu.Ab4.H12L3 (Group 3) via intravenous injection. Blood was then collected from the animals and subjected to the following treatment prior to flow cytometry analysis: (i) blood sample not spiked with either test CCR8 mAb (“unspiked”), (ii) blood sample further spiked with a saturating concentration of Afuc.hu.Ab5.H13L1, and (iii) blood sample further spiked with a saturating concentration of Afuc.hu.Ab4.H12L3. Each of the unspiked and spiked samples were subsequently treated with a labeled goat anti-human IgG antibody and analyzed by flow cytometry. […] Furthermore, flow cytometry of spiked blood also had very little effect on the total CCR8+T-reg cell count.
Anti-CCR8 antibodies Afuc.hu.Ab5.H13L1, Afuc.hu.Ab4.H12L3, and the control anti-gD were used for this study.

human CCR8 [5] = biological target: T3, human CCR8; assay: cell-based or functional assay; remark: listed apart in the source
GST-FcgR3a.F158 [6] = biological target: T2, GST-FcgR3a.F158; assay: ELISA, GST-FcgR3a.F158 captured by anti-GST antibody
Description: as §1

human CCR8 [7] = biological target: T3, human CCR8; assay: flow cytometry, human colorectal cancer dissociated tumor cells, 2 ug/mL mAb, AF647 anti-human IgG; CCR8 read on Treg cells
Description: The mAbs were evaluated for binding to regulatory T cells (Treg cells or Tregs) by Fluorescence-Activated Cell Sorting (FACS) flow cytometry. Human colorectal dissociated tumor cells (DTC) (Discovery Life Sciences) were thawed according to vendor's protocol. Cells were surface stained with eFluor 780-conjugated Fixable Viability Dye (ThermoFisher Scientific) and 2 ug/mL mAb specific for CCR8, OX40 (positive control), Herceptin (negative control), or anti-hIgG (negative control) for 20 min at 4° C. followed by secondary detection with AF647-conjugated AffiniPure F(ab′)2 Fragment Goat anti-Human IgG, Fcg fragment-specific (Jackson ImmunoResearch) for 10 min at 4° C. Cells were then intracellularly stained using the eBioscience Foxp3/Transcription Factor Staining Buffer Set (ThermoFisher Scientific) according to the manufacturer's protocol. […] Shown in FIG. 1 are mean fluorescent intensity (MFI) values for CD8 T cells (defined as CD45+CD14−CD3+CD8+CD4−) (circles, ◯), conventional CD4 T cells (defined as CD45+CD14−CD3+CD8−CD4+FOXP3−) (squares, □), and Treg cells (defined as CD45+CD14−CD3+CD8−CD4+FOXP3+) (triangles, ▴). Three of the five CCR8 mAb clones specifically stained Treg cells and not conventional CD4 or CD8 T cells and were ranked according to CCR8 MFI, greater than 500 MFI: hu.Ab4.H1L1>hu.Ab5.H1L1>hu.Ab3.H1L1. […]

T2 sequence (P08637 17-208 limits assumed): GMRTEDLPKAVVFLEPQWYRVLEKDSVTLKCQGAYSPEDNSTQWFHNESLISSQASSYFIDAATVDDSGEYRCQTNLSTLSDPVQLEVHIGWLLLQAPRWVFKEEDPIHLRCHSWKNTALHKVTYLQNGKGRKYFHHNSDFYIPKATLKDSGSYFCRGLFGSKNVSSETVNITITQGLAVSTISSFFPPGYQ
T1 sequence (P08637 17-208 F176V limits assumed): as the sequence (P08637 17-208 limits assumed) above, with F160V counted along it
T4 sequence (O97665 other isoform, or with tags, fused parts or gaps): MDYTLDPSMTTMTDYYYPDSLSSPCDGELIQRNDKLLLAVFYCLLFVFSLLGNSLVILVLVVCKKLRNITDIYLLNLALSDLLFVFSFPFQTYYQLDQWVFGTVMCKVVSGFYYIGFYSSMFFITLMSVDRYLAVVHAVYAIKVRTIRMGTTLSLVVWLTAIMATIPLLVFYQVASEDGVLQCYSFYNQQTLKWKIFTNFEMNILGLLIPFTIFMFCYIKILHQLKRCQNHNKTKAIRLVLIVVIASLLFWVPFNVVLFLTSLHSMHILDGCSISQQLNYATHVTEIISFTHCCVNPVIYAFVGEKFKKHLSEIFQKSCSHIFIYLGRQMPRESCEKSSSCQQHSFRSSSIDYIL

| Binder | fold increase in binding potency versus fucosylated counterpart (GST-FcgR3a.V158 [1]) [fold] | fold increase in binding potency versus fucosylated counterpart (GST-FcgR3a.F158 [2]) [fold] | ADCP EC50, macrophages HR/FF (FIG. 14A) (human CCR8 [3]) [nM] | ADCP EC50, macrophages HR/FF (FIG. 14E) (human CCR8 [3]) [nM] | ADCP EC50, macrophages HR/VF (FIG. 14C) (human CCR8 [3]) [nM] | ADCP EC50, macrophages RR/FF (FIG. 14B) (human CCR8 [3]) [nM] | ADCP EC50, macrophages RR/VF (FIG. 14D) (human CCR8 [3]) [nM] | EC50 (GST-FcgR3a.V158 [4]) [µg/mL] | binding result (cyno CCR8) | ADCC EC50, NK-92 F158 cells (FIG. 11A) (human CCR8 [5]) [nM] | ADCC EC50, NK-92 F158 cells (FIG. 11C) (human CCR8 [5]) [nM] | ADCC EC50, NK-92 V158 cells (FIG. 11B) (human CCR8 [5]) [nM] | EC50 (GST-FcgR3a.F158 [6]) [µg/mL] | binding result (human CCR8 [7]) |
| --- | --- | --- | --- | --- | --- | --- | --- | --- | --- | --- | --- | --- | --- | --- |
| B1 | ~10 | ~10 | 0.025 | 0.035 | 0.017 | 0.12 | 0.079 | 0.033 | binds | 0.006 | 0.006 | 0.011 | 0.08 | – |
| B2 | – | – | – | – | – | – | – | – | – | – | – | – | – | binds |
| B3 | ~10 | ~10 | 0.017 | 0.022 | 0.01 | 0.2 | 0.5 | 0.035 | binds | 0.0047 | 0.003 | 0.0073 | 0.101 | – |
